Assay results published in article PMC3656483 (Cell, 2013).

Columns and labels:
^CFPCul1–Rbx1 = ^CFPCul1–Rbx1 (UniProt Q13616 1-776; P62877 1-108); assay: FRET or BRET
GST-Rbx1–Cul1 = GST-Rbx1–Cul1 (UniProt P62877 1-108; Q13616 1-776); assay: pull-down
GST-Rbx1–Cul1, sequence (P62877 whole entry, chain 1 of 2): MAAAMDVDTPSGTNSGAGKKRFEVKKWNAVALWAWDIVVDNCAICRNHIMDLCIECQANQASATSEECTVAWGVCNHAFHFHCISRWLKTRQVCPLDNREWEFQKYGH
GST-Rbx1–Cul1, sequence (Q13616 whole entry, chain 2 of 2): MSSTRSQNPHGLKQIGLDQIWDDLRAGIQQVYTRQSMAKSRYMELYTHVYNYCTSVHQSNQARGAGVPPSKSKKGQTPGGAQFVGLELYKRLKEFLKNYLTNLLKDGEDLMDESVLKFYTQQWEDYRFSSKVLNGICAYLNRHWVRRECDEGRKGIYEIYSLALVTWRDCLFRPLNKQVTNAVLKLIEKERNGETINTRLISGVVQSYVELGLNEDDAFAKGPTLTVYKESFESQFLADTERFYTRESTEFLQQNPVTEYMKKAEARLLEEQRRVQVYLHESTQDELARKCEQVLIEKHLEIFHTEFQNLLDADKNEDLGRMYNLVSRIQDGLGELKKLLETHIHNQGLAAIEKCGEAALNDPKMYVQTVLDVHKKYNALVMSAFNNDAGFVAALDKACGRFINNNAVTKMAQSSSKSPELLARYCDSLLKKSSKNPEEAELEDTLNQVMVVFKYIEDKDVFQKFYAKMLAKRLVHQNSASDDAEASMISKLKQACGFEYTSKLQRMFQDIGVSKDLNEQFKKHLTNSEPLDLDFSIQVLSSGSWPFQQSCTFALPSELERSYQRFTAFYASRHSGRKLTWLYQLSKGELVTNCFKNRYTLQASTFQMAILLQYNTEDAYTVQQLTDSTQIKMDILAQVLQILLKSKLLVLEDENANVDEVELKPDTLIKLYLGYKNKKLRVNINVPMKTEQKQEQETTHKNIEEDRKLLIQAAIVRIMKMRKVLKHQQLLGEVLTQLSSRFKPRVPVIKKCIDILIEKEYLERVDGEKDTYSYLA

^CFPCul1–Rbx1, sequence (Q13616 whole entry, chain 1 of 2): as the sequence (Q13616 whole entry, chain 2 of 2) above
^CFPCul1–Rbx1, sequence (P62877 whole entry, chain 2 of 2): as the sequence (P62877 whole entry, chain 1 of 2) above

Binder	Kd (^CFPCul1–Rbx1) [nM]	koff (GST-Rbx1–Cul1) [s⁻¹]
Cullin-associated and neddylation-dissociated protein 1 (Cand1) (natural protein, UniProt Q86VP6 1-1230, looked up) MASASYHISNLLEKMTSSDKDFRFMATNDLMTELQKDSIKLDDDSERKVVKMILKLLEDKNGEVQNLAVKCLGPLVSKVKEYQVETIVDTLCTNMLSDKEQLRDISSIGLKTVIGELPPASSGSALAANVCKKITGRLTSAIAKQEDVSVQLEALDIMADMLSRQGGLLVNFHPSILTCLLPQLTSPRLAVRKRTIIALGHLVMSCGNIVFVDLIEHLLSELSKNDSMSTTRTYIQCIAAISRQAGHRIGEYLEKIIPLVVKFCNVDDDELREYCIQAFESFVRRCPKEVYPHVSTIINICLKYLTYDPNYNYDDEDEDENAMDADGGDDDDQGSDDEYSDDDDMSWKVRRAAAKCLDAVVSTRHEMLPEFYKTVSPALISRFKEREENVKADVFHAYLSLLKQTRPVQSWLCDPDAMEQGETPLTMLQSQVPNIVKALHKQMKEKSVKTRQCCFNMLTELVNVLPGALTQHIPVLVPGIIFSLNDKSSSSNLKIDALSCLYVILCNHSPQVFHPHVQALVPPVVACVGDPFYKITSEALLVTQQLVKVIRPLDQPSSFDATPYIKDLFTCTIKRLKAADIDQEVKERAISCMGQIICNLGDNLGSDLPNTLQIFLERLKNEITRLTTVKALTLIAGSPLKIDLRPVLGEGVPILASFLRKNQRALKLGTLSALDILIKNYSDSLTAAMIDAVLDELPPLISESDMHVSQMAISFLTTLAKVYPSSLSKISGSILNELIGLVRSPLLQGGALSAMLDFFQALVVTGTNNLGYMDLLRMLTGPVYSQSTALTHKQSYYSIAKCVAALTRACPKEGPAVVGQFIQDVKNSRSTDSIRLLALLSLGEVGHHIDLSGQLELKSVILEAFSSPSEEVKSAASYALGSISVGNLPEYLPFVLQEITSQPKRQYLLLHSLKEIISSASVVGLKPYVENIWALLLKHCECAEEGTRNVVAECLGKLTLIDPETLLPRLKGYLISGSSYARSSVVTAVKFTISDHPQPIDPLLKNCIGDFLKTLEDPDLNVRRVALVTFNSAAHNKPSLIRDLLDTVLPHLYNETKVRKELIREVEMGPFKHTVDDGLDIRKAAFECMYTLLDSCLDRLDIFEFLNHVEDGLKDHYDIKMLTFLMLVRLSTLCPSAVLQRLDRLVEPLRATCTTKVKANSVKQEFEKQDELKRSAMRAVAALLTIPEAEKSPLMSEFQSQISSNPELAAIFESIQKDSSSTNLESMDTS	≤ 53	–
Cand1^TAMRA (natural protein, UniProt Q86VP6 1-1230, looked up, TAMRA (site not stated)) MASASYHISNLLEKMTSSDKDFRFMATNDLMTELQKDSIKLDDDSERKVVKMILKLLEDKNGEVQNLAVKCLGPLVSKVKEYQVETIVDTLCTNMLSDKEQLRDISSIGLKTVIGELPPASSGSALAANVCKKITGRLTSAIAKQEDVSVQLEALDIMADMLSRQGGLLVNFHPSILTCLLPQLTSPRLAVRKRTIIALGHLVMSCGNIVFVDLIEHLLSELSKNDSMSTTRTYIQCIAAISRQAGHRIGEYLEKIIPLVVKFCNVDDDELREYCIQAFESFVRRCPKEVYPHVSTIINICLKYLTYDPNYNYDDEDEDENAMDADGGDDDDQGSDDEYSDDDDMSWKVRRAAAKCLDAVVSTRHEMLPEFYKTVSPALISRFKEREENVKADVFHAYLSLLKQTRPVQSWLCDPDAMEQGETPLTMLQSQVPNIVKALHKQMKEKSVKTRQCCFNMLTELVNVLPGALTQHIPVLVPGIIFSLNDKSSSSNLKIDALSCLYVILCNHSPQVFHPHVQALVPPVVACVGDPFYKITSEALLVTQQLVKVIRPLDQPSSFDATPYIKDLFTCTIKRLKAADIDQEVKERAISCMGQIICNLGDNLGSDLPNTLQIFLERLKNEITRLTTVKALTLIAGSPLKIDLRPVLGEGVPILASFLRKNQRALKLGTLSALDILIKNYSDSLTAAMIDAVLDELPPLISESDMHVSQMAISFLTTLAKVYPSSLSKISGSILNELIGLVRSPLLQGGALSAMLDFFQALVVTGTNNLGYMDLLRMLTGPVYSQSTALTHKQSYYSIAKCVAALTRACPKEGPAVVGQFIQDVKNSRSTDSIRLLALLSLGEVGHHIDLSGQLELKSVILEAFSSPSEEVKSAASYALGSISVGNLPEYLPFVLQEITSQPKRQYLLLHSLKEIISSASVVGLKPYVENIWALLLKHCECAEEGTRNVVAECLGKLTLIDPETLLPRLKGYLISGSSYARSSVVTAVKFTISDHPQPIDPLLKNCIGDFLKTLEDPDLNVRRVALVTFNSAAHNKPSLIRDLLDTVLPHLYNETKVRKELIREVEMGPFKHTVDDGLDIRKAAFECMYTLLDSCLDRLDIFEFLNHVEDGLKDHYDIKMLTFLMLVRLSTLCPSAVLQRLDRLVEPLRATCTTKVKANSVKQEFEKQDELKRSAMRAVAALLTIPEAEKSPLMSEFQSQISSNPELAAIFESIQKDSSSTNLESMDTS	–	1.2e-05
